The supplement of paper PMC7125110
± gives the standard error. Variants at the floor of the assay were thinned out.

B1: glmS ribozyme (parent)
chain: AUAAAAGCGCCAGAACUACAGAAAUGUAGUUGACGAGGAGGAGGUUUAUCGAAUUUUCGGCGGAUGCCUCCAAA

Variants of: B1
Experiment: self-cleavage kobs at 2500 uM GlcN6P; higher = faster cleavage; RNA array
Details: with glucosamine-6-phosphate
Procedure, shortened: (§1)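 Using a hybridised Cy3 probe at 37 °C, barcoded ribozyme variants transcribed in situ by E. coli RNA polymerase on sequenced MiSeq chips were monitored across tiles imaged over ~14 h. The flow contained glucosamine-6-phosphate from 40 μM to 10 mM in HEPES/KCl/Mg(OAc)2 buffer. Signals were normalised to baseline and to non-cleaving reference variants before per-tile medians were fit to one- or two-exponential decays to yield kobs. Weighted Michaelis–Menten fits across concentrations gave kcat and KM.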
With G35A G40U G51A U69G the “self-cleavage kobs at 2500 uM GlcN6P” value was less than 1e-05 s⁻¹. C11U U31C C50U was tested, and the “self-cleavage kobs at 2500 uM GlcN6P” value was less than 1e-05 s⁻¹. A6U A36U G37C A48U was tested, and the “self-cleavage kobs at 2500 uM GlcN6P” value was less than 1e-05 s⁻¹. With G7A U31C G35C A42C U46G U54G the “self-cleavage kobs at 2500 uM GlcN6P” value was less than 1e-05 s⁻¹. G7C A12U A39G A53U was tested, and the “self-cleavage kobs at 2500 uM GlcN6P” value was less than 1e-05 s⁻¹. For C8A G41A U65C, the “self-cleavage kobs at 2500 uM GlcN6P” value was less than 1e-05 s⁻¹. With G7A C11A A12U G32A G60A C61G the “self-cleavage kobs at 2500 uM GlcN6P” value was less than 1e-05 s⁻¹. With G35A U69C the “self-cleavage kobs at 2500 uM GlcN6P” value was less than 1e-05 s⁻¹. For U46G C61A C70G, the “self-cleavage kobs at 2500 uM GlcN6P” value was less than 1e-05 s⁻¹. In the case of C50G U56G G59U, the “self-cleavage kobs at 2500 uM GlcN6P” value is reported as 8.66e-05 ± 3.9e-05 s⁻¹. For A12U A33C G43A C67U, the “self-cleavage kobs at 2500 uM GlcN6P” value was less than 1e-05 s⁻¹. With A15U A39G G51A the “self-cleavage kobs at 2500 uM GlcN6P” value was less than 1e-05 s⁻¹. With A6G G29A G60A the “self-cleavage kobs at 2500 uM GlcN6P” value was less than 1e-05 s⁻¹. With C11A G37C G38U the “self-cleavage kobs at 2500 uM GlcN6P” value was less than 1e-05 s⁻¹. In the case of G43A C50G U69G, the “self-cleavage kobs at 2500 uM GlcN6P” value is reported as less than 1e-05 s⁻¹. For A12G C16U C67U, the “self-cleavage kobs at 2500 uM GlcN6P” value was 0.000252 ± 5.2e-05 s⁻¹. In the case of A14U U30G G41U, the “self-cleavage kobs at 2500 uM GlcN6P” value is reported as 0.000233 ± 7.4e-05 s⁻¹. In the case of C19A U31C U45G, the “self-cleavage kobs at 2500 uM GlcN6P” value is reported as 0.000156 ± 4.3e-05 s⁻¹. With G29A U30A A53G U65G the “self-cleavage kobs at 2500 uM GlcN6P” value was 6.03e-05 ± 1.7e-05 s⁻¹. With C8U G32U U45C the “self-cleavage kobs at 2500 uM GlcN6P” value was less than 1e-05 s⁻¹. In the case of C10G C34U U46C C70U, the “self-cleavage kobs at 2500 uM GlcN6P” value is reported as less than 1e-05 s⁻¹. In the case of A12U A14U G29C U49A, the “self-cleavage kobs at 2500 uM GlcN6P” value is reported as less than 1e-05 s⁻¹. With G29C G40A U56G the “self-cleavage kobs at 2500 uM GlcN6P” value was 4.42e-05 ± 1.1e-05 s⁻¹. With G43A G44A U47A G59C the “self-cleavage kobs at 2500 uM GlcN6P” value was less than 1e-05 s⁻¹. In the case of G9U G41C G59A C71U, the “self-cleavage kobs at 2500 uM GlcN6P” value is reported as less than 1e-05 s⁻¹. G35C A48G G51U U57G G60U was tested, and the “self-cleavage kobs at 2500 uM GlcN6P” value was less than 1e-05 s⁻¹. In the case of C8G A15U U55C, the “self-cleavage kobs at 2500 uM GlcN6P” value is reported as less than 1e-05 s⁻¹. In the case of C10A U54C, the “self-cleavage kobs at 2500 uM GlcN6P” value is reported as less than 1e-05 s⁻¹. For C8A G32U A48C, the “self-cleavage kobs at 2500 uM GlcN6P” value was less than 1e-05 s⁻¹. In the case of G35C G37C U54A G66U, the “self-cleavage kobs at 2500 uM GlcN6P” value is reported as less than 1e-05 s⁻¹. With A15G G32A C68U the “self-cleavage kobs at 2500 uM GlcN6P” value was 0.000247 ± 8.7e-05 s⁻¹. With U31G G32A U56G the “self-cleavage kobs at 2500 uM GlcN6P” value was 9.1e-05 ± 2.5e-05 s⁻¹. For A39U G59A A64C, the “self-cleavage kobs at 2500 uM GlcN6P” value was less than 1e-05 s⁻¹. In the case of A12C G37U A52G, the “self-cleavage kobs at 2500 uM GlcN6P” value is reported as less than 1e-05 s⁻¹. For G29C C50U A53G C71U, the “self-cleavage kobs at 2500 uM GlcN6P” value was less than 1e-05 s⁻¹. A6G C16A C34A A36U G43U was tested, and the “self-cleavage kobs at 2500 uM GlcN6P” value was less than 1e-05 s⁻¹. In the case of A36G G41U G60A, the “self-cleavage kobs at 2500 uM GlcN6P” value is reported as less than 1e-05 s⁻¹. C11U G29A G38U U47C was tested, and the “self-cleavage kobs at 2500 uM GlcN6P” value was less than 1e-05 s⁻¹. C8G U46G A48U U55G G66U C70U was tested, and the “self-cleavage kobs at 2500 uM GlcN6P” value was less than 1e-05 s⁻¹. In the case of A12G C68A C71A, the “self-cleavage kobs at 2500 uM GlcN6P” value is reported as less than 1e-05 s⁻¹. With C11A A14U C71U the “self-cleavage kobs at 2500 uM GlcN6P” value was 6.69e-05 ± 2.1e-05 s⁻¹. C8G C11A G13U A33U A36C U55C C58G C71G was tested, and the “self-cleavage kobs at 2500 uM GlcN6P” value was less than 1e-05 s⁻¹. G51C C67G C71U was tested, and the “self-cleavage kobs at 2500 uM GlcN6P” value was less than 1e-05 s⁻¹. With A12G A33G G44C the “self-cleavage kobs at 2500 uM GlcN6P” value was less than 1e-05 s⁻¹. In the case of C11U U54C C67A, the “self-cleavage kobs at 2500 uM GlcN6P” value is reported as 0.00025 ± 8e-05 s⁻¹. In the case of A15U C16U C58G C70U, the “self-cleavage kobs at 2500 uM GlcN6P” value is reported as 7.87e-05 ± 2.1e-05 s⁻¹. A12U G13A G32C A36G C61U was tested, and the “self-cleavage kobs at 2500 uM GlcN6P” value was less than 1e-05 s⁻¹. For A14C U46G C70A, the “self-cleavage kobs at 2500 uM GlcN6P” value was 0.000308 ± 9.2e-05 s⁻¹. With A48U G51A U57A the “self-cleavage kobs at 2500 uM GlcN6P” value was less than 1e-05 s⁻¹. In the case of G7U A52G G60C C67G, the “self-cleavage kobs at 2500 uM GlcN6P” value is reported as less than 1e-05 s⁻¹. For C16U C34G A53C, the “self-cleavage kobs at 2500 uM GlcN6P” value was less than 1e-05 s⁻¹. G7A A12C A15U G41U was tested, and the “self-cleavage kobs at 2500 uM GlcN6P” value was less than 1e-05 s⁻¹. With A12G G32U U45G G59U the “self-cleavage kobs at 2500 uM GlcN6P” value was less than 1e-05 s⁻¹. C10U A12U A42G was tested, and the “self-cleavage kobs at 2500 uM GlcN6P” value was 0.000153 ± 5.7e-05 s⁻¹. In the case of C16A U31C G43A U47G A53G C68U, the “self-cleavage kobs at 2500 uM GlcN6P” value is reported as 8.35e-05 ± 2.9e-05 s⁻¹. With G29C G43U G62C the “self-cleavage kobs at 2500 uM GlcN6P” value was less than 1e-05 s⁻¹. G7U U49A U65G was tested, and the “self-cleavage kobs at 2500 uM GlcN6P” value was less than 1e-05 s⁻¹. With C11G G13A C16G G29C G37C A53G the “self-cleavage kobs at 2500 uM GlcN6P” value was less than 1e-05 s⁻¹. With G63C A64C C67A the “self-cleavage kobs at 2500 uM GlcN6P” value was less than 1e-05 s⁻¹. In the case of G37C C67U C71A, the “self-cleavage kobs at 2500 uM GlcN6P” value is reported as 5.9e-05 ± 2.4e-05 s⁻¹. For U31C G32A G38C G43A, the “self-cleavage kobs at 2500 uM GlcN6P” value was less than 1e-05 s⁻¹. In the case of G7C A42G G59U, the “self-cleavage kobs at 2500 uM GlcN6P” value is reported as less than 1e-05 s⁻¹. With G13U U45A U46A C58U the “self-cleavage kobs at 2500 uM GlcN6P” value was 6.89e-05 ± 3.4e-05 s⁻¹. G13U U57G U65C was tested, and the “self-cleavage kobs at 2500 uM GlcN6P” value was less than 1e-05 s⁻¹. In the case of G35U C58G A64U, the “self-cleavage kobs at 2500 uM GlcN6P” value is reported as less than 1e-05 s⁻¹. With U31A A48G G59A the “self-cleavage kobs at 2500 uM GlcN6P” value was 0.000108 ± 3.6e-05 s⁻¹. With G32C A39G A53G G62A the “self-cleavage kobs at 2500 uM GlcN6P” value was less than 1e-05 s⁻¹. With G9C G40U G41U U45G the “self-cleavage kobs at 2500 uM GlcN6P” value was less than 1e-05 s⁻¹. With G38U U49G U57A C70G the “self-cleavage kobs at 2500 uM GlcN6P” value was 6.84e-05 ± 3.3e-05 s⁻¹. With A39G U47G C68G the “self-cleavage kobs at 2500 uM GlcN6P” value was 5.94e-05 ± 2.4e-05 s⁻¹. For A33C U56C C71A, the “self-cleavage kobs at 2500 uM GlcN6P” value was less than 1e-05 s⁻¹. In the case of G7A A48G C70U, the “self-cleavage kobs at 2500 uM GlcN6P” value is reported as less than 1e-05 s⁻¹. For G7A G38U G41U, the “self-cleavage kobs at 2500 uM GlcN6P” value was less than 1e-05 s⁻¹. A15U G44U C71U was tested, and the “self-cleavage kobs at 2500 uM GlcN6P” value was less than 1e-05 s⁻¹. For A48G U49G A52U A53G, the “self-cleavage kobs at 2500 uM GlcN6P” value was less than 1e-05 s⁻¹. With C10G G40A G60U the “self-cleavage kobs at 2500 uM GlcN6P” value was less than 1e-05 s⁻¹. For U30G U56G C71A, the “self-cleavage kobs at 2500 uM GlcN6P” value was 0.000262 ± 6.3e-05 s⁻¹. In the case of G7U U45A C58A, the “self-cleavage kobs at 2500 uM GlcN6P” value is reported as less than 1e-05 s⁻¹. G7C U30G G37A was tested, and the “self-cleavage kobs at 2500 uM GlcN6P” value was less than 1e-05 s⁻¹. For A12U G44C A53G U56A, the “self-cleavage kobs at 2500 uM GlcN6P” value was 7.9e-05 ± 2.1e-05 s⁻¹. For A42C U65C C71G, the “self-cleavage kobs at 2500 uM GlcN6P” value was less than 1e-05 s⁻¹.

Variants of: B1
Experiment: self-cleavage kobs at 10000 uM GlcN6P; higher = faster cleavage; RNA array
Details: with glucosamine-6-phosphate
Procedure, shortened: as §1
In the case of G35A U69C, the “self-cleavage kobs at 10000 uM GlcN6P” value is reported as less than 1e-05 s⁻¹. G9U G41C G59A C71U was tested, and the “self-cleavage kobs at 10000 uM GlcN6P” value was less than 1e-05 s⁻¹. In the case of U31G G32A U56G, the “self-cleavage kobs at 10000 uM GlcN6P” value is reported as 0.000522 ± 9.3e-05 s⁻¹. In the case of C11A A14U C71U, the “self-cleavage kobs at 10000 uM GlcN6P” value is reported as 4.6e-05 ± 1.3e-05 s⁻¹. With G13U U57G U65C the “self-cleavage kobs at 10000 uM GlcN6P” value was less than 1e-05 s⁻¹. A15U G44U C71U was tested, and the “self-cleavage kobs at 10000 uM GlcN6P” value was less than 1e-05 s⁻¹.
